Reference: article PMC3764422, “A model of yeast glycolysis based on a consistent kinetic characterisation of all its enzymes” (Febs Letters, 2013)

Molecular target: T1, phosphofructokinase beta subunit Pfk2p (S. cerevisiae, UniProt P16862 1-959)
T1 sequence (looked up): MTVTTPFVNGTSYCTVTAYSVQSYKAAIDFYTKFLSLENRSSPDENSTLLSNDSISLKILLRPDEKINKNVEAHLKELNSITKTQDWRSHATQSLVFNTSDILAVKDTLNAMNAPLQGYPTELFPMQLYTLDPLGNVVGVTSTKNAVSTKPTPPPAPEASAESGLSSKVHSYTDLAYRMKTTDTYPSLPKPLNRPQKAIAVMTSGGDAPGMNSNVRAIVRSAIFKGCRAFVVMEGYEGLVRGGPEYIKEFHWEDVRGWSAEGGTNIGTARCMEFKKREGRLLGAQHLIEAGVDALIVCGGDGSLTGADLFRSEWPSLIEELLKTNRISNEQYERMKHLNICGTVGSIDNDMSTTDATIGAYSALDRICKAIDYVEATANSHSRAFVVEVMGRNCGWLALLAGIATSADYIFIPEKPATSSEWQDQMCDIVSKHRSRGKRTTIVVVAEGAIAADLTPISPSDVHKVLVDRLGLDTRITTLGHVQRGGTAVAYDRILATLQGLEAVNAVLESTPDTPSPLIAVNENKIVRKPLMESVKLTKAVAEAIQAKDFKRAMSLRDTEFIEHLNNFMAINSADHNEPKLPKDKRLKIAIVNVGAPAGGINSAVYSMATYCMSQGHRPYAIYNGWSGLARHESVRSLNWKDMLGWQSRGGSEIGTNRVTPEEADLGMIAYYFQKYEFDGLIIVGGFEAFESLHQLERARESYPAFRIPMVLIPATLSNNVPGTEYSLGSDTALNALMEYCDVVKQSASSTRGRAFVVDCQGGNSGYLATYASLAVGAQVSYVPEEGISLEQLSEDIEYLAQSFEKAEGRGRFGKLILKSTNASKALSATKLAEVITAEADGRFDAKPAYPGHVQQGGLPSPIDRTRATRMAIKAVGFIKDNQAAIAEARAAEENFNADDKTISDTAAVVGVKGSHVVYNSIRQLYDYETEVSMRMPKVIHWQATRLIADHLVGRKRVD
Assay: cell-based or functional assay

B1: phosphofructokinase alpha subunit Pfk1p (enzyme, S. cerevisiae, UniProt P16861 1-987, looked up)
chain: MQSQDSCYGVAFRSIITNDEALFKKTIHFYHTLGFATVKDFNKFKHGENSLLSSGTSQDSLREVWLESFKLSEVDASGFRIPQQEATNKAQSQGALLKIRLVMSAPIDETFDTNETATITYFSTDLNKIVEKFPKQAEKLSDTLVFLKDPMGNNITFSGLANATDSAPTSKDAFLEATSEDEIISRASSDASDLLRQTLGSSQKKKKIAVMTSGGDSPGMNAAVRAVVRTGIHFGCDVFAVYEGYEGLLRGGKYLKKMAWEDVRGWLSEGGTLIGTARSMEFRKREGRRQAAGNLISQGIDALVVCGGDGSLTGADLFRHEWPSLVDELVAEGRFTKEEVAPYKNLSIVGLVGSIDNDMSGTDSTIGAYSALERICEMVDYIDATAKSHSRAFVVEVMGRHCGWLALMAGIATGADYIFIPERAVPHGKWQDELKEVCQRHRSKGRRNNTIIVAEGALDDQLNPVTANDVKDALIELGLDTKVTILGHVQRGGTAVAHDRWLATLQGVDAVKAVLEFTPETPSPLIGILENKIIRMPLVESVKLTKSVATAIENKDFDKAISLRDTEFIELYENFLSTTVKDDGSELLPVSDRLNIGIVHVGAPSAALNAATRAATLYCLSHGHKPYAIMNGFSGLIQTGEVKELSWIDVENWHNLGGSEIGTNRSVASEDLGTIAYYFQKNKLDGLIILGGFEGFRSLKQLRDGRTQHPIFNIPMCLIPATVSNNVPGTEYSLGVDTCLNALVNYTDDIKQSASATRRRVFVCEVQGGHSGYIASFTGLITGAVSVYTPEKKIDLASIREDITLLKENFRHDKGENRNGKLLVRNEQASSVYSTQLLADIISEASKGKFGVRTAIPGHVQQGGVPSSKDRVTASRFAVKCIKFIEQWNKKNEASPNTDAKVLRFKFDTHGEKVPTVEHEDDSAAVICVNGSHVSFKPIANLWENETNVELRKGFEVHWAEYNKIGDILSGRLKLRAEVAALAAENK
- kcat of phosphofructokinase, Pfk1p:Pfk2p co-expressed and co-purified (spectrophotometric coupled assay, 30 °C): 210 s⁻¹
